Measured values reported in patent US20140178854A1.

Biological target: gp70 env protein of amphotropic MLV (4070A envelope), on purified viral particles (amphotropic murine leukemia virus (4070A envelope))
Experiment: ELISA on plate-bound MLV, dilution factor 10, Exp074-DTV Plate 1

Chain of gp70 env protein of amphotropic MLV (4070A envelope), on purified viral particles (amphotropic murine leukemia virus (4070A envelope)) (P21995 whole entry): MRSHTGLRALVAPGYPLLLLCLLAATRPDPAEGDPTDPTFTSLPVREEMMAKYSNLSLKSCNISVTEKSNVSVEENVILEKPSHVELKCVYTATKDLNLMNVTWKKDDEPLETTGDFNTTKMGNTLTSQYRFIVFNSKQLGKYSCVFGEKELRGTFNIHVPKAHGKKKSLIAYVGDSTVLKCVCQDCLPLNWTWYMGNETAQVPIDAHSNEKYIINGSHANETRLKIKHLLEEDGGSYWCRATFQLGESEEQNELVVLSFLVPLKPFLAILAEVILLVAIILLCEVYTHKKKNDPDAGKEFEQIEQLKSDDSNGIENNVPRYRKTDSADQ

83A25 monoclonal antibody (rat IgG2a, anti-gp70)
Mean OD: 2.25 OD
